Laboratory results published in patent publication EP4703385A1 (Fortvita Biologics Inc., dated 2026).

Target: T1, Human CD40 Ligand/TNFSF5 Protein, His, Flag Tag, active trimer (MALS verified) (human, UniProt P29965 108-261, limits assumed)
T1 construct: Bought protein, described as an active trimer; The order of the CD40L part and the tags is not known; also called CD40L protein; CD40L (Acro CDL-H52Db); not shown: His tag and Flag tag
T1 sequence (looked up): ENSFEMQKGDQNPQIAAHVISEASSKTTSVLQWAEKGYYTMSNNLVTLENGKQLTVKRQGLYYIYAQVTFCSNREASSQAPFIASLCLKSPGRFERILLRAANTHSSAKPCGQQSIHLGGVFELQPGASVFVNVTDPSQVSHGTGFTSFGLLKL
Experiment: bio-layer interferometry (ForteBio); antibody 100 nM, human CD40L 100 nM, 30 C

B1: Hz47E2 (antibody, human IgG1, kappa, L234A L235A, V domains shown)
VH: EVQLVESGGGLVKPGGSLRLSCAASGFTFSDYAMSWVRQAPGKGLEWVSEISTVHTYTYYSDAVAGRFTISRDNAKNSLYLQMNSLRAEDTAVYYCARDRVLDYWGQGTLVTVSS
VL: DIVMTQSPDSLAVSLGERATINCRASESVEYYDTSLMQWYQQKPGQPPKLLIYAASNLESGVPDRFSGSGSGTDFTLTISSLQAEDVAVYYCQQTKKLPWTFGQGTKVEIKR
notes: Expressed in ExpiCHO cells; also called Antibody Hz47E2; humanized anti-CD40L antibody Hz47E2
B1 showed a Kd of 0.315 nM.

B2: Hz33B9C5 (antibody, human IgG1, kappa, L234A L235A, V domains shown)
VH: QVQLVESGGGLVKPGGSLRLSCAASGFTFSDYYMYWIRQAPGKGLEWVSTISGGGTYTYSPDSVKGRFTISRDNAKNSLYLQMNSLRAEDTAVYYCARGEPGLAYWGQGTLVTVSS
VL: DIVMTQSPDSLAVSLGERATINCKASQSVDYYGDSYMHWYQQKPGQPPKLLIYASSNLESGVPDRFSGSGSGTDFTLTISSLQAEDVAVYYCQQSHEDPWTFGGGTKVEIKR
notes: Expressed in ExpiCHO cells; also called Antibody Hz33B9C5; humanized anti-CD40L antibody Hz33B9C5
Binder B2 has a Kd of 0.297 nM.
